Results from article PMC4837377 (Scientific Reports, 2016).

Molecular target: PA (residues 1-716) of influenza A virus RNA-dependent RNA-polymerase (influenza A virus …, UniProt P31343 1-716)
Assay: SEC-SAXS
Settings: both partners purified

B1: PB1(1-686) of influenza A virus RNA-dependent RNA-polymerase (domain or fragment)
chain: MDVNPTLLFLKVPAQNAISTTFPYTGDPPYSHGTGTGYTMDTVNRTHQYSEKGKWTTNTETGAAQLNPIDGPLPEDNEPSGYAQTDCVLEAMAFLEESHPGIFENSCLETMEVVQQTRVDRLTQGRQTYDWTLNRNQPAATALANTIEVFRSNGLIANESGRLIDFLKDVIESMDKEEMEITTHFQRKRRVRDNMTKKMVTQRTIGKKKQRVNKRSYLIRALTLNTMTKDAERGKLKRRAIATPGMQIRGFVYFVETLARSICEKLEQSGLPVGGNEKKAKLANVVRKMMTNSQDTELSFTITGDNTKWNENQNPRMFLAMITYITKNQPEWFRNILSIAPIMFSNKMARLGKGYMFESKRMKLRTQIPAEMLASIDLKYFNESTRKKIEKIRPLLIDGTASLSPGMMMGMFNMLSTVLGVSILNLGQKKYTKTTYWWDGLQSSDDFALIVNAPNHEGIQAGVDRFYRTCKLVGINMSKKKSYINRTGTFEFTSFFYRYGFVANFSMELPSFGVSGINESADMSIGVTVIKNNMINNDLGPATAQMALQLFIKDYRYTYRCHRGDTQIQTRRSFELKKLWEQTRSKAGLLVSDGGPNLYNIRNLHIPEVCLKWELMDEDYQGRLCNPLNPFVSHKEIESVNNAVVMPAHGPAKSMEYDAVATTHSWIPKRNRSILNTSQRGILEDE
  stoichiometry N: 1
